Assay results from patent US20140127211A1.

How the values were obtained:
[1] = molecular target: Notch 1-3 NRR domain swap chimera: C of Notch1; A, B, hd1, hd2 of Notch3 (row 6, unnamed on the sheet) (human); assay: ELISA: NRR-Fc protein coated at 1 ug/ml, antibody applied at 5 ug/ml, goat anti-human Fc-HRP, TMB, O.D. 450 nM
[2] = molecular target: Notch 1-3 NRR domain swap chimera: B of Notch1; A, C, hd1, hd2 of Notch3 (row 5, unnamed on the sheet) (human); assay: as above

B1: rat-human chimeric antibody 75 (ch75) (antibody, V domains shown)
VH: QVKLLQSGAALVKPGASVKMSCKASGYAFTDYWVTWVKQSHGKSLEWIGEISPNSGGTNFNEKFKGKATLTVDKSTSTAYMELSRLTSEDSAIYYCTRGEIRYNWFAYWGQGTLVTVSS
VL: NIVMTQSPKSMSISVGDRVTMNCKASQNVGNNIAWYQQKPGQSPKLLIYYASNRYTGVPDRFTGGGYGTDFTLTINSMQAEDAAFYYCQRLYNSPFTFGSGTKLEIK
- O.D. 450 nM (ELISA, relative binding capacity) [1]: 0.8
- O.D. 450 nM (ELISA, relative binding capacity) [2]: 2.37
